Data as given in paper PMC3713010, “Sox2 Transcriptionally Regulates Pqbp1, an Intellectual Disability-Microcephaly Causative Gene, in Neural Stem Progenitor Cells”.

T1: Oct6 DNA-binding domain (BD-Oct6) (Mus musculus (B6), UniProt P21952 317-416)
T1 sequence: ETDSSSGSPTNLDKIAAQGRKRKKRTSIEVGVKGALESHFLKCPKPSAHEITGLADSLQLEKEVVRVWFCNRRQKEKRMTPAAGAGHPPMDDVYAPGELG

T2: Brn2 DNA-binding domain (BD-Brn2) (Mus musculus (B6), UniProt P31360 336-435)
T2 sequence: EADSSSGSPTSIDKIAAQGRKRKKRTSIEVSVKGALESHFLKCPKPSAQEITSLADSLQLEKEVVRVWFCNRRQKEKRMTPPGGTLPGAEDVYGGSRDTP

B1: 100 (dsDNA)
DNA 1: GGGGGCAACCAAAAAAAATGTATTTTACAAAAATCACAACCCCC
DNA 2: GGGGGTTGTGATTTTTGTAAAATACATTTTTTTTGGTTGCCCCC
B2: 2 (dsDNA)
DNA 1: GGGGGGCCATAGAATTGTACTTCTGTCACCAGTTTTATTTTTTTATTTCCCCC
DNA 2: GGGGGAAATAAAAAAATAAAACTGGTGACAGAAGTACAATTCTATGGCCCCCC
B3: 101 (dsDNA)
DNA 1: GGGGGTGCCTCCTTTTGTGAGCTATTTATAATGCTAACCCCC
DNA 2: GGGGGTTAGCATTATAAATAGCTCACAAAAGGAGGCACCCCC
B4: 107 (dsDNA)
DNA 1: GGGGGACTAGTTTTCTATTACTACAAATCTCAACTCCCCC
DNA 2: GGGGGAGTTGAGATTTGTAGTAATAGAAAACTAGTCCCCC
B5: 102c (dsDNA)
DNA 1: GGGGGATTTGGCGATTGTATTATAATTGTCTATCAGTCCCCC
DNA 2: GGGGGACTGATAGACAATTATAATACAATCGCCAAATCCCCC
B6: 9 (dsDNA)
DNA 1: GGGGGTCCTGCCACTTGGGTTGCAGTGAGGACAATGAAATGAGCCCCC
DNA 2: GGGGGCTCATTTCATTGTCCTCACTGCAACCCAAGTGGCAGGACCCCC
B7: 105 (dsDNA)
DNA 1: GGGGGATTTTTTAAAAAATTAGACTACCACAAATCAACTGTCCCCC
DNA 2: GGGGGACAGTTGATTTGTGGTAGTCTAATTTTTTAAAAAATCCCCC
B8: 106 (dsDNA)
DNA 1: GGGGGGCTTCCCTAGAATTGGAGATACAAAGGGCTCTGCCCCC
DNA 2: GGGGGCAGAGCCCTTTGTATCTCCAATTCTAGGGAAGCCCCCC
B9: 102a (dsDNA)
DNA 1: GGGGGGGATCCCCACAATACAAAAAAAACAAAAACAAAACCCCCC
DNA 2: GGGGGGTTTTGTTTTTGTTTTTTTTGTATTGTGGGGATCCCCCCC
B10: 1 (dsDNA)
DNA 1: GGGGGAAAATAACCAAAATAAAAAGTGTACAATTCAGTGGCCCCCC
DNA 2: GGGGGGCCACTGAATTGTACACTTTTTATTTTGGTTATTTTCCCCC
B11: 102b (dsDNA)
DNA 1: GGGGGAAAACAAAACAAAACTGGATTTGGCGATTGTATCCCCC
DNA 2: GGGGGATACAATCGCCAAATCCAGTTTTGTTTTGTTTTCCCCC
B12: 104 (dsDNA)
DNA 1: GGGGGCACAATTTTTATAATATATAATTGTTTCATCAACCCCC
DNA 2: GGGGGTTGATGAAACAATTATATATTATAAAAATTGTGCCCCC

Columns and labels:
Test in all cases: EMSA; 10% glycerol, 20 mM HEPES pH 7.8, 45 mM KCl, 10 mM NaCl, 1 mM EDTA, 1 mM DTT, 0.2 ug/uL BSA, 0.1% NP-40, 50 ng poly-dIdC; 20 ng each GST protein; room temperature 30 min (heterodimers 4 C); 6% PAGE 0.25x TBE
Conditions in all cases: protein: recombinant; tags: GST (N-terminal, pGEX-6P-1); label: 32P-dCTP fill-in of the 5' (dG)5 overhangs of both strands (Methods; control probes are given with GGG)
[1] = molecular target: T1, Oct6 DNA-binding domain (BD-Oct6)
How it was run: (§1)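 DNA binding of transcription factor DNA-binding domains to candidate cis-elements was read from band radioactivity in the expected shift region. The GST-tagged domains came from E. coli BL21 via glutathione-sepharose; probes were annealed oligonucleotides labelled with 32P-dCTP. Each assay used 20 ng protein, 40,000–50,000 cpm probe and 50 ng poly-dIdC for 30 min at room temperature, followed by 6% polyacrylamide electrophoresis in 0.25×TBE at 4°C.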

[2] = molecular target: Pax6 DNA-binding domain (BD-Pax6) (Mus musculus (B6), UniProt P63015 190-289)
Pax6 DNA-binding domain (BD-Pax6), sequence (P63015 190-289): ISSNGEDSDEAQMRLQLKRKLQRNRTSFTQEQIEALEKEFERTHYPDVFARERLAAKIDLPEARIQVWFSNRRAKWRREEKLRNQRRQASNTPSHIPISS
How it was run: as §1

[3] = molecular target: T2, Brn2 DNA-binding domain (BD-Brn2)
How it was run: as §1

| Binder | binding result [1] | binding result [2] | binding result [3] |
| --- | --- | --- | --- |
| B1 | binds | binds | no binding |
| B2 | no binding | no binding | no binding |
| B3 | binds | no binding | binds |
| B4 | no binding | no binding | no binding |
| B5 | binds | binds | binds |
| B6 | no binding | no binding | no binding |
| B7 | binds | binds | binds |
| B8 | no binding | no binding | no binding |
| B9 | no binding | no binding | no binding |
| B10 | no binding | no binding | no binding |
| B11 | no binding | no binding | no binding |
| B12 | binds | binds | binds |
